We go through 30 compounds from US9995740B2, “Method of determining temperature and method of detecting a target peptide” (SYSMEX CORPORATION, priority 2015, dated 2018).

Residues, ends and D or L forms follow the SMILES beside them. No end group written: not given here.

The target of data set [1] is T1, HSA (Homo sapiens, UniProt P02768).
T1 construct: purchased Sigma-Aldrich Co. LLC
Nature of the data set: Kd of TMR-labeled peptide for HSA by fluorescence intensity difference and Hill's equation. Format: binding. The settings on record: for suitability as linker peptide of the peptide for temperature determination (FIG. 8): classified by Kd for HSA, 500 μM or more = suitable. The procedure:
Each of the resulting mixtures was subjected to measurement with a spectrophotofluorometer [product name: F-7000, manufactured by Hitachi High-Technologies Corporation] and the fluorescence intensity with an excitation wavelength of 540 nm and a fluorescence wavelength of 580 nm (hereinafter, referred to as “fluorescence intensity A”) was measured.
Each of the resulting mixtures was subjected to measurement with a spectrophotofluorometer [product name: F-7000, manufactured by Hitachi High-Technologies Corporation] and the fluorescence intensity with an excitation wavelength of 540 nm and a fluorescence wavelength of 580 nm (hereinafter, referred to as “fluorescence intensity B”) was measured.
Equation (I): Difference between fluorescence intensities=fluorescence intensity A−fluorescence intensity B (I)
A difference between the fluorescence intensities was determined in accordance with the above equation.

Data set [2] in a line: Isoelectric point (pI) of the peptides of Table 3. Format: physicochemical.
The target in data set [3] is T1, HSA. In words: Hydrothermal treatment in the presence of HSA or serum, partition of peptide between supernatant and insoluble fraction (SDS-PAGE, fluorescence image). The following applies: for band derived from the peptide in supernatant of hydrothermally-treated sample: SDS-PAGE fluorescence image.
Where [4] appears, read: microwave hydrothermal treatment 160° C., in the presence of HSA.
The mark [5] stands for this setting: heat transfer 200° C. for 40 minutes, in the presence of HSA (300 or 600 μM), phosphate buffered saline.

Regarding `CSCC[C@H](NC(=O)[C@H](CO)NC(=O)[C@H](Cc1ccc(O)cc1)NC(=O)[C@@H](N)CO)C(=O)N[C@@H](CCC(=O)O)C(=O)N[C@@H](Cc1c[nH]cn1)C(=O)N[C@@H](Cc1ccccc1)C(=O)N[C@@H](CCCNC(=N)N)C(=O)N[C@@H](Cc1c[nH]c2ccccc12)C(=O)NCC(=O)N[C@@H](CCCCN)C(=O)N1CCC[C@H]1C(=O)N[C@H](C(=O)NCC(=O)N[C@@H](CCCCN)C(=O)N[C@@H](CCCCN)C(=O)N[C@@H](CCCNC(=N)N)C(=O)N[C@@H](CCCNC(=N)N)C(=O)N1CCC[C@H]1C(=O)N[C@H](C(=O)N[C@@H](CCCCN)C(=O)N[C@H](C(=O)N[C@@H](Cc1ccc(O)cc1)C(=O)N1CCC[C@H]1C(=O)N[C@@H](CC(N)=O)C(=O)N[C@@H](C)C(=O)NCC(=O)N[C@@H](CCC(=O)O)C(=O)N[C@@H](CC(N)=O)C(=O)N[C@@H](CCC(=O)O)C(=O)N[C@@H](CO)C(=O)N[C@@H](C)C(=O)N[C@@H](CCC(=O)O)C(=O)N[C@@H](C)C(=O)N[C@@H](Cc1ccccc1)C(=O)N1CCC[C@H]1C(=O)N[C@@H](CC(C)C)C(=O)N[C@@H](CCC(=O)O)C(=O)N[C@@H](Cc1ccccc1)C(=O)O)C(C)C)C(C)C)C(C)C` [ACTH (1-39), Adrenocorticotropic hormone (ACTH) (1-39)] (H-SYSMEHFRWGKPVGKKRRPVKVYPNAGENESAEAFPLEF-OH; N-terminus and C-terminus assumed), the “suitability as linker peptide of the peptide for temperature determination (FIG. 8)” value (“suitability as linker peptide” below) in data set [1] is recorded as “suitable”. Also, the pI in data set [2] was 9.3. Turning to `CC[C@H](C)[C@H](NC(=O)[C@H](CCC(=O)O)NC(=O)[C@H](CC(=O)O)NC(=O)[C@@H](NC(=O)[C@H](CS)NC(=O)[C@H](CC(C)C)NC(=O)[C@@H]1CCCN1C(=O)[C@H](CCCNC(=N)N)NC(=O)[C@H](Cc1c[nH]c2ccccc12)NC(=O)CNC(=O)[C@H](CS)NC(=O)[C@H](CC(C)C)NC(=O)[C@H](Cc1c[nH]c2ccccc12)NC(=O)[C@H](CCC(=O)O)NC(=O)[C@H](CC(=O)O)NC(=O)[C@@H](N)CC(=O)O)[C@@H](C)CC)C(=O)N[C@@H](CC(C)C)C(=O)N[C@@H](CCCNC(=N)N)C(=O)O` [SA21] (H-DDEWLCGWRPLCIDEILR-OH; N-terminus and C-terminus assumed), the Kd (commonly the equilibrium constant for the complex coming apart) in data set [1] (TMR-labeled peptide, phosphate buffered saline, excitation 540 nm / fluorescence 580 nm) was less than 500 µM. Consider “(Arg) 10: SEQ ID NO: 21, 10 amino acid residues”, for which, in data set [1], the “suitability as linker peptide” value is on record as “suitable”. Moreover, the pI in data set [2] came out at 13. The like results for “(Glu) 10: SEQ ID NO: 18, 10 amino acid residues” were, in that order, “suitable” and 3.5.

With “(Gly) 10: SEQ ID NO: 20, 10 amino acid residues”, the “suitability as linker peptide” value in data set [1] is reported as “suitable”. Moreover, the pI in data set [2] worked out at 5.5. With “(His)3: SEQ ID NO: 11, 3 amino acid residues (HHH; Synthetic sequence of (His)3)”, the pI in data set [2] is on record as 7. On to “(Lys)10: SEQ ID NO: 6, 10 amino acid residues (KKKKKKKKKK; Synthetic sequence of (Lys)10)”, for which, in data set [2], the pI was determined as 11. Take “ACTH (1-41): SEQ ID NO: 17, 41 amino acid residues (GPSYSMEHFRWGKPVGKKRRPVKVYPNGAEDESAEAFPLEF; Synthetic sequence of ACTH (1-41))”: the “suitability as linker peptide” value in data set [1] is “suitable”. Further, in data set [2], the pI is on record as 8.3. Turning to “ACTH (2-16): SEQ ID NO: 10, 15 amino acid residues (YSMEHFRWGKPVGKK; Synthetic sequence of ACTH (2-16))”, the pI in data set [2] is 10. “ACTH (7-11): SEQ ID NO: 5, 5 amino acid residues (FRWGK; Synthetic sequence of ACTH (7-11))” gave a pI in data set [2] of 11. Same read-out and setting: under “Blood coagulation factor XIII (Factor XIII): SEQ ID NO: 15, 25 amino acid residues (AVPPNNSNAAEDDLPTVELQGVVPR; Synthetic sequence of Factor XIII)” stands 3.9.

Regarding Brain natriuretic peptide [BNP], the “suitability as linker peptide” value in data set [1] was “suitable”. In data set [2], this compound returned a pI of 11. With “C4a: SEQ ID NO: 23, 15 amino acid residues (NGFKSHALQLNNRQI; Synthetic sequence of C4a) [Peptide C4a]”, the “suitability as linker peptide” value in data set [1] is “suitable”. Moreover, in data set [2], the pI was 11. The like results for “C-peptide: SEQ ID NO: 31, 31 amino acid residues (EAEDLQVGQVELGGGPGAGSLQPLALEGSLQ; Synthetic sequence of C-peptide)” were, in that order, “suitable” and 3.5. On to Colistin, for which, in data set [1], the “suitability as linker peptide” value is reported as “suitable”. For the compound “Cp6: SEQ ID NO: 22, 8 amino acid residues (DIGEEFNQ; Synthetic sequence of Cp6)”, the “suitability as linker peptide” value in data set [1] is recorded as “suitable”. The same compound yielded a pI in data set [2] of 3.6.

Regarding “Dynorphin A (YGGFLRRIRPKLK; Synthetic sequence of Dynorphin A)”, the “suitability as linker peptide” value in data set [1] is “suitable”. This compound also registered a pI in data set [2] of 11.7. “Fibrinogen α: SEQ ID NO: 12, 25 amino acid residues (DEAGSEADHEGTHSTKRGHAKSRPV; Synthetic sequence of Fibrinogen alpha)” registered a pI in data set [2] of 6.3. “Glucagon (1-29): SEQ ID NO: 4, 29 amino acid residues”: in data set [2], the pI worked out at 6.8. Turning to “HSA 237-249 fragment: SEQ ID NO: 26, 13 amino acid residues (AWAVARLSQRFPK; Synthetic sequence of HSA237-249)”, the “suitability as linker peptide” value in data set [1] was “suitable”. For the same compound, in data set [2], the pI is listed as 12. As to “HSA 599-609 fragment: SEQ ID NO: 30, 11 amino acid residues (LVAASQAALGL; Synthetic sequence of HSA599-609)”, the “suitability as linker peptide” value in data set [1] is “suitable”. The compound also returned a pI in data set [2] of 5.5. The matching figures for “ITIH4: SEQ ID NO: 28, 21 amino acid residues (NVHSAGAAGSRMNFRPGVLSS; Synthetic sequence of ITIH4)”: “suitable” and 12.

Regarding “Kininogen: SEQ ID NO: 7, 19 amino acid residues (HNLGHGHKHERDQGHGHQR; Synthetic sequence of Kininorgen)”, the pI in data set [2] came out at 8.8. Take “TMR-labeled ACTH (1-24): ACTH (1-24) labeled with tetramethyl rhodamine (TMR)”: the “band derived from the peptide in supernatant of hydrothermally-treated sample” value (“band derived from the peptide” for short) in data set [3] (setting [4]) is “not observed”. With “TMR-labeled ACTH (1-39): ACTH (1-39) labeled with tetramethyl rhodamine (TMR) (SYSMEHFRWGKPVGKKRRPVKVYPNAGENESAEAFPLEF; also: tetramethyl rhodamine (TMR) label, position not given here)”, in data set [3] (setting [4]), the “band derived from the peptide” value is reported as “observed”.

Consider “TMR-labeled HSA 599-609 fragment: HSA 599-609 fragment labeled with tetramethyl rhodamine (TMR) (LVAASQAALGL; also: tetramethyl rhodamine (TMR) label, position not given here)”, for which, in data set [3] (setting [5]), the “band derived from the peptide” value is reported as “observed”.

On to “TMR-labeled SA21: SA21 labeled with tetramethyl rhodamine; used as peptide for phase partition determination (DDEWLCGWRPLCIDEILR; cysteine pairing not given here; also: tetramethyl rhodamine (TMR) label, position not given here)”, for which, in data set [3] (160° C., serum-containing sample M, observed under visible light), the “partition of peptide after hydrothermal treatment” value was “transferred to the insoluble fraction”. For the same compound, the “band derived from the peptide” value in data set [3] (setting [5]) is reported as “light band”. For “lqp: SEQ ID NO: 13, 12 amino acid residues (GKYFNAAEYHAQ; Synthetic sequence of lqp)”, the pI in data set [2] stood at 6.8. The compound “β-amyloid (1-40): SEQ ID NO: 1, 40 amino acid residues” came in with a pI in data set [2] of 5.3. On to “β-amyloid (1-42): SEQ ID NO: 2, 42 amino acid residues”, for which, in data set [2], the pI was 5.3.
